The record followed here is patent US20260028400A1 (AIMED BIO, published 2026).

The labels stand for the following.
B1: P015010 scFv (scFv, V domains shown)
VH: EVQLLESGGGLVQPGGSLRLSCAASGFTFSNYAMSWVRQAPGKGLEWVSGISPNGSSIYYADSVKGRFTISRDNSKNTLYLQMNSLRAEDTAVYYCAKAARLSPSRNYSYAYGMDVWGQGTLVTVSS
VL: QSVLTQPPSASGTPGQRVTISCTGSSSNIGNNNVTWYQQLPGTAPKLLIYSDSQRPSGVPDRFSGSKSGTSASLAISGLRSEDEADYYCGTWDYSLNGYVFGGGTKLTVL
notes: HA-tagged scFv
B2: P015043 scFv (scFv, V domains shown)
VH: EVQLLESGGGLVQPGGSLRLSCAASGFTFSNYDMSWVRQAPGKGLEWVSWISPGGSSIYYADSVKGRFTISRDNSKNTLYLQMNSLRAEDTAVYYCAKTLTRFDYWGQGTLVTVSS
VL: QSVLTQPPSASGTPGQRVTISCTGSSSNIGNNNVSWYQQLPGTAPKLLIYYDSHRPSGVPDRFSGSKSGTSASLAISGLRSEDEADYYCGTWDSSLSGYVFGGGTKLTVL
notes: HA-tagged scFv
B3: P015012 scFv (scFv, V domains shown)
VH: EVQLLESGGGLVQPGGSLRLSCAASGFTFSGYSMSWVRQAPGKGLEWVSGISYGGSSISYADSVKGRFTISRDNSKNTLYLQMNSLRAEDTAVYYCAKPVRRWARFRLSYDDAMDVWGQGTLVTVSS
VL: QSVLTQPPSASGTPGQRVTISCSGSSSNIGNNAVNWYQQLPGTAPKLLIYANSHRPSGVPDRFSGSKSGTSASLAISGLRSEDEADYYCGTWDSSLSGYVFGGGTKLTVL
notes: HA-tagged scFv
B4: P015002 scFv (scFv, V domains shown)
VH: EVQLLESGGGLVQPGGSLRLSCAASGFTFSDYSMSWVRQAPGKGLEWVSGISHNGGSTYYADSVKGRFTISRDNSKNTLYLQMSSLRAEDTAVYYCARDVSRWSKTRWSYDNAMDVWGQGTLVTVSS
VL: QSVLTQPPSASGTPGQRVTISCTGSSSNIGSNYVSWYRQLPGTAPKLLIYSDSNRPSGVPDRFSGSKSGTSASLAISGLRSEDEADYYCATWDASLSAYVFGGGTKLTVL
notes: HA-tagged scFv
B5: P015005 scFv (scFv, V domains shown)
VH: EVQLLESGGGLVQPGGSLRLSCAASGFTFSDYSMSWVRQAPGKGLEWVSGISHNGGSTYYADSVKGRFTISRDNSKNTLYLQMSSLRAEDTAVYYCARDVSRWSKTRWSYDNAMDVWGQGTLVTVSS
VL: QSVLTQPPSASGTPGQRVTISCSGSSSNIGSNYVNWYQQLPGTAPKLLIYSDSHRPSGVPDRFSGSKSGTSASLAISGLRSEDEADYYCGSWDSSLNAYVLGGGTKLTVL
notes: HA-tagged scFv
B6: P015041 scFv (scFv, V domains shown)
VH: EVQLLESGGGLVQPGGSLRLSCAASGFTFSNYAMSWVRQAPGKGLEWVSGISPNGSSIYYADSVKGRFTISRDNSKNTLYLQMNSLRAEDTAVYYCAKAARLSPSRNYSYAYGMDVWGQGTLVTVSS
VL: QSVLTQPPSASGTPGQRVTISCTGSSSNIGNNNVTWYQQLPGTAPKLLIYSDSQRPSGVPDRFSGSKSGTSASLAISGLRSEDEADYYCGTWEYSLNGYVFGGGTKLTVL
notes: HA-tagged scFv
B7: P015040 scFv (scFv, V domains shown)
VH: EVQLLESGGGLVQPGGSLRLSCAASGFTFSNYAMSWVRQAPGKGLEWVSGISPNGSSIYYADSVKGRFTISRDNSKNTLYLQMNSLRAEDTAVYYCAKAARLSPSRNYSYAYGMDVWGQGTLVTVSS
VL: QSVLTQPPSASGTPGQRVTISCTGSSSNIGNNNVTWYQQLPGTAPKLLIYSDSQRPSGVPDRFSGSKSGTSASLAISGLRSKDEADYYCGTWDYSLNGYVFGGGTKLTVL
notes: HA-tagged scFv
B8: P015038 scFv (scFv, V domains shown)
VH: EVQLQESGGGLVLPGGSLRLSCAASGFTFNNYAMSWVRQAPGKGLEWVSGISPNGSSIYYADSVKGRFTISRDNSKNTLYLQMNSLRAEDTAVYYCAKAARLSPSRNYSYAYGMDVWGQGTLVTVSS
VL: QSVLTQPPSASGTPGQRVTISCTGSSSNIGNNNVTWYQQLPGTAPKLLIYSDSQRPSGVPDRFSGSKSGTSASLAISGLRSEDEADYYCGTWDYSLNGYVFGGGTKLTVL
notes: HA-tagged scFv

T1 sequence (Q01973 39-151 limits assumed): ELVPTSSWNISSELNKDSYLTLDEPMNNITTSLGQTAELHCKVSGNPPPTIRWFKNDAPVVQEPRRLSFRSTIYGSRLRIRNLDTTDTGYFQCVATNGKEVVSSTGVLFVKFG

This test has as its target T1, Ig-like (human, UniProt Q01973).
T1 construct: Ig-like domain, His tag; also called Ig-like domain; human ROR1-immunoglobulin domain
Briefly: scFv ELISA on coated domain, anti-HA-HRP, OD450. As for the experimental part: Thereafter, the plate was treated with each scFv and reacted for 2 hours, followed by washing four times using PBST and distilled water. After binding at room temperature for 1 hour using an HRP-conjugated anti-HA antibody (Roche, 12013819001, Anti-HA-Peroxidase, High Affinity) capable of binding to the HA tag, washing was performed six times using PBST and distilled water. After color development by adding TMB substrate solution (Thermo Scientific, 34029, 1-Step™ Ultra TMB-ELISA Substrate Solution), the color reaction was stopped with stop solution (Invitrogen, SS04, ELISA Stop Solution), and the absorbance was measured at OD 450 nm. The scFv binding to each domain was analyzed through ELISA.
In general terms: In an ELISA, binding on a coated surface is turned into a signal by an enzyme label.
Turning to B1, the binding result is “binds”.
To B2 belongs “no binding”; to B3, “no binding”.
The result for B4 reads “no binding”.
As for B5, the binding result was “no binding”.
The result for B6 reads “binds”.
To B7 belongs “binds”.
With B8, the binding result was “binds”.
